Test results as given in article PMC11046469, “Leveraging a Phage-Encoded Noncanonical Amino Acid: A Novel Pathway to Potent and Selective Epigenetic Reader Protein Inhibitors” (ACS Central Science, 2024).

Target: T1, ENL YEATS domain (AviSUMO-ENL YEATS) (Homo sapiens, UniProt Q03111)
T1 construct: encoding ENL YEATS (aa 1−148) was cloned in pET28a-; made in house; host or cells: E. coli BL21(DE3pLysS), co-expressed with BirA (pBirAcm)
T1 sequence (Q03111 1-148): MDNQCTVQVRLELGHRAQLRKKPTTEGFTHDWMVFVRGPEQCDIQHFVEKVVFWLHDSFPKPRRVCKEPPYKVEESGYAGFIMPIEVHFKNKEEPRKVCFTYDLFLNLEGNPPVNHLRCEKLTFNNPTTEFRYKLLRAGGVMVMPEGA
Experiment: Phage panning of BuK-containing 7-mer library against AviSUMO-ENL YEATS with Illumina NGS abundance
Details: sheet ENLR3: round 3 of panning against ENL YEATS; TAG = amber codon (BuK); 7-mer library positions V1-V7
Method in brief: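 Phage displaying BuK-containing amber-obligate 7-mer peptides, made with 5 mM BuK, was panned against biotinylated AviSUMO-ENL YEATS on streptavidin beads with washes of rising stringency. Rounds 1 and 3 were sequenced by Illumina NGS, and sequences with mismatches were filtered out before copy-number abundance was counted.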

Substance | n (number of NGS reads of the unique amino acid sequence) | percent (share of sequence reads)
WRIIETAGG | 9 | 0.008196%
WSIIETAGG | 3 | 0.002732%
WTAGIIETAGG | 4 | 0.003642%
WTVYCYTAG | 3 | 0.002732%
WWIIDTAGG | 29 | 0.02641%
WWIIEKG | 2 | 0.001821%
WWIIETAGD | 23 | 0.02094%
WWIIETAGV | 16 | 0.01457%
WWIIKTAGG | 9 | 0.008196%
WWIIVTAGG | 4 | 0.003642%
WWIVETAGG | 6 | 0.005464%
WWTIETAGG | 2 | 0.001821%
WWVAGPTAG | 70 | 0.06374%
WWVFDATAG | 10 | 0.009106%
YDFYCYTAG | 51 | 0.04644%
YDVCCYTAG | 6 | 0.005464%

Substance | n (number of NGS reads of the unique amino acid sequence) | percent (share of sequence reads)
YDVFCYTAG | 8 | 0.007285%
YDVHCYTAG | 5 | 0.004553%
YDVYCCTAG | 5 | 0.004553%
YDVYCHTAG | 13 | 0.01184%
YDVYCNTAG | 3 | 0.002732%
YDVYCTAGTAG | 3 | 0.002732%
YDVYCYQ | 15 | 0.01366%
YDVYCYW | 26 | 0.02368%
YDVYFYTAG | 47 | 0.0428%
YDVYSYTAG | 3 | 0.002732%
YDVYYYTAG | 7 | 0.006374%
YEVYCYTAG | 2 | 0.001821%
YLYTAGFPC | 5 | 0.004553%
YLYYVPC | 6 | 0.005464%
YNVYCYTAG | 10 | 0.009106%
YYVYCYTAG | 38 | 0.0346%

The remaining lines, values ahead:

n (number of NGS reads of the unique amino acid sequence) | percent (share of sequence reads) | Substance
2 | 0.001821% | WWIIEQG
10 | 0.009106% | WWIIETAGE
33339 | 30.359% | WWIIETAGG
6 | 0.005464% | WWIIETAGR
27 | 0.02459% | WWIIETAGW
3 | 0.002732% | WWIIEWG
29 | 0.02641% | WWIIEYG
6 | 0.005464% | WWIIGTAGG
19 | 0.0173% | WWIITAGTAGG
4 | 0.003642% | WWVIETAGG
7 | 0.006374% | YAIYCYTAG
11 | 0.01002% | YDAYCYTAG
2 | 0.001821% | YDDYCYTAG
3 | 0.002732% | YDIYCYTAG
3 | 0.002732% | YDLYCYTAG
2 | 0.001821% | YDVYCFTAG
2 | 0.001821% | YDVYCYL
60611 | 55.1932% | YDVYCYTAG
26 | 0.02368% | YDVYCYY
9 | 0.008196% | YDVYRYTAG
3 | 0.002732% | YDVYWYTAG
13 | 0.01184% | YGVYCYTAG
2 | 0.001821% | YHVYCYTAG
1006 | 0.9161% | YLYTAGVPC
41 | 0.03734% | YVGPWTAGG
4 | 0.003642% | YVVYCYTAG

Same assay, conditions: sheet ENLR3: round 3 of selection against ENL YEATS; TAG = amber codon (BuK)

Substance | n (number of NGS reads of the 7-mer sequence V1-V7) | percent (share of NGS reads of the 7-mer sequence V1-V7)
WWIFETAGG | 1 | 0.0009106%
WWIIATAGG | 1 | 0.0009106%
WWIIELG | 1 | 0.0009106%
WWINETAGG | 1 | 0.0009106%
WWITETAGG | 1 | 0.0009106%
YAVYCYTAG | 1 | 0.0009106%
YDGPWTAGG | 1 | 0.0009106%
YDVYCSTAG | 1 | 0.0009106%
YDVYCYE | 1 | 0.0009106%
YLTLFTAGG | 1 | 0.0009106%
YLYLVPC | 1 | 0.0009106%
YLYTAGAPC | 1 | 0.0009106%
YLYTAGVPF | 1 | 0.0009106%
YLYVTAGAC | 1 | 0.0009106%
YPCVCFTAG | 1 | 0.0009106%
YVCPWTAGG | 1 | 0.0009106%
YVGPLTAGG | 1 | 0.0009106%

Results, then the substance that gave them:

n (number of NGS reads of the 7-mer sequence V1-V7) | percent (share of NGS reads of the 7-mer sequence V1-V7) | Substance
1 | 0.0009106% | WWFIETAGG
1 | 0.0009106% | WWILETAGG
1 | 0.0009106% | WWVLVTAGS
1 | 0.0009106% | YDGYCYTAG
1 | 0.0009106% | YDVYCYK
1 | 0.0009106% | YGTAGHDFF
1 | 0.0009106% | YLDDTAGLH
1 | 0.0009106% | YLYTAGVHC
1 | 0.0009106% | YRWVFSF
1 | 0.0009106% | YWTAGCARV
